Measured values reported in publication PMC10397247.
Each block holds one binder with its values, some of them ahead of it.

Assays:
Test in all cases: two-hybrid library CCmax;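 note: natural log of median RNA to DNA barcode read ratio; higher means stronger binding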
Conditions in all cases: mean of both orientations
P5-AA-12HGe-M = biological target: T1, P5-AA-12HGe-M
T1 chain: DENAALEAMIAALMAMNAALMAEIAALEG

P5-AA-12HGe-H = biological target: T2, P5-AA-12HGe-H
T2 chain: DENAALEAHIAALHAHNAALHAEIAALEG

P5-AA-12HGe-Y = biological target: T3, P5-AA-12HGe-Y
T3 chain: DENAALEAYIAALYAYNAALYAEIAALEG

P5-AA-1HGe-Y = biological target: T4, P5-AA-1HGe-Y
T4 chain: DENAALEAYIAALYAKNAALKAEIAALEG

P5-AA-12HGe-Q = biological target: T5, P5-AA-12HGe-Q
T5 chain: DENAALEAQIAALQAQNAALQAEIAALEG

P5-AA-12HGe-T = biological target: T6, P5-AA-12HGe-T
T6 chain: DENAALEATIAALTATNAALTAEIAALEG

P5-AA-1HGe-D = biological target: T7, P5-AA-1HGe-D
T7 chain: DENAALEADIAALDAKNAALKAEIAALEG

4H1802-AA = biological target: T8, 4H1802-AA
T8 chain: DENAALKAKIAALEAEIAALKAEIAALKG

4H2750-AA = biological target: T9, 4H2750-AA
T9 chain: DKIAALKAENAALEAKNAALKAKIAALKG

4H3020-AA = biological target: T10, 4H3020-AA
T10 chain: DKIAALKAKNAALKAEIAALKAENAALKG

4H58-AA = biological target: T11, 4H58-AA
T11 chain: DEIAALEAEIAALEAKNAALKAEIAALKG

4H3446-AA = biological target: T12, 4H3446-AA
T12 chain: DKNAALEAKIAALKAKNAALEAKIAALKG

4H3628-AA = biological target: T13, 4H3628-AA
T13 chain: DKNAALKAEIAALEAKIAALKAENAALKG

4H3066-AA = biological target: T14, 4H3066-AA
T14 chain: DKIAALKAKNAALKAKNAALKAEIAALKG

4H478-AA = biological target: T15, 4H478-AA
T15 chain: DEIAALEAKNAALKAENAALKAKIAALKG

4H2742-AA = biological target: T16, 4H2742-AA
T16 chain: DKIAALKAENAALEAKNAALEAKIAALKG

4H3920-AA = biological target: T17, 4H3920-AA
T17 chain: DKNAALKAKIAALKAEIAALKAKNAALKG

4H971-AA = biological target: T18, 4H971-AA
T18 chain: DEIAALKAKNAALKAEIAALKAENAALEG

4H3029-AA = biological target: T19, 4H3029-AA
T19 chain: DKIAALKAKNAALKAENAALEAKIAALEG

4H716-AA = biological target: T20, 4H716-AA
T20 chain: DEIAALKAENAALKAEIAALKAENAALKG

4H2143-AA = biological target: T21, 4H2143-AA
T21 chain: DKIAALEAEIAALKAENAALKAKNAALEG

4H2458-AA = biological target: T22, 4H2458-AA
T22 chain: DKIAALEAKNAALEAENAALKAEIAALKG

APC1434-AA = biological target: T23, APC1434-AA
T23 chain: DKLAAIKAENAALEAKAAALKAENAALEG

4H2290-AA = biological target: T24, 4H2290-AA
T24 chain: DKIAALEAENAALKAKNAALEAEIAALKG

APC9096-AA = biological target: T25, APC9096-AA
T25 chain: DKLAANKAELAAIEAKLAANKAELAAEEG

APC2405-AA = biological target: T26, APC2405-AA
T26 chain: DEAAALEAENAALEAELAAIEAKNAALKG

P6-AA-12HAA-S = biological target: T27, P6-AA-12HAA-S
T27 chain: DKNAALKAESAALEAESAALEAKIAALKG

P6-AA-12HAA-L = biological target: T28, P6-AA-12HAA-L
T28 chain: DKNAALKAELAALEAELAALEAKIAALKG

4H775-AA = biological target: T29, 4H775-AA
T29 chain: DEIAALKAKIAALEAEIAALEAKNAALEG

4H2614-AA = biological target: T30, 4H2614-AA
T30 chain: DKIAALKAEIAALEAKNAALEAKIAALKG

4H1710-AA = biological target: T31, 4H1710-AA
T31 chain: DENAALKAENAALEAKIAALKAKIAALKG

4H2512-AA = biological target: T32, 4H2512-AA
T32 chain: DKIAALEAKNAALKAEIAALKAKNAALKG

4H432-AA = biological target: T33, 4H432-AA
T33 chain: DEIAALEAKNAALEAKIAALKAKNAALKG

4H3619-AA = biological target: T34, 4H3619-AA
T34 chain: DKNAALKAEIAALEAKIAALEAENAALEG

4H3094-AA = biological target: T35, 4H3094-AA
T35 chain: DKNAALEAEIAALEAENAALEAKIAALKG

4H3449-AA = biological target: T36, 4H3449-AA
T36 chain: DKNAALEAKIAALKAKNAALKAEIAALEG

P6-AA-1HAA-L = biological target: T37, P6-AA-1HAA-L
T37 chain: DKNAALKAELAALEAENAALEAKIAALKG

P6-AA-1HGe-H = biological target: T38, P6-AA-1HGe-H
T38 chain: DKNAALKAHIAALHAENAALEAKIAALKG

P6-AA-1HAA-R = biological target: T39, P6-AA-1HAA-R
T39 chain: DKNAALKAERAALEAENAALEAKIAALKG

P6-AA-1HAA-K = biological target: T40, P6-AA-1HAA-K
T40 chain: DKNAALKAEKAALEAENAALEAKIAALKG

P6-AA-12HGe-W = biological target: T41, P6-AA-12HGe-W
T41 chain: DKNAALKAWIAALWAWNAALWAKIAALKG

P6-AA-12HGe-K = biological target: T42, P6-AA-12HGe-K
T42 chain: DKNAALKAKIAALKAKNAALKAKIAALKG

Binder: DKNAALKAEIAALEAENAALEAKIAALKG [4H3606-AA]
interaction score (P5-AA-12HGe-M): 1.77
interaction score (P5-AA-12HGe-H): 1.86
interaction score (P5-AA-12HGe-Y): 2.52
interaction score (P5-AA-1HGe-Y): 2.36
interaction score (P5-AA-12HGe-Q): 1.98
interaction score (P5-AA-12HGe-T): 1.23
interaction score (P5-AA-1HGe-D): 1.14

Binder: DENAALEAENAALKAKIAALKAEIAALEG [4H1257-AA]
interaction score (4H1802-AA): -1.38
interaction score (4H2750-AA): -1.22
interaction score (4H3020-AA): -1.1
interaction score (4H58-AA): -1.21

Binder: DENAALEAEIAALEAKIAALEAKNAALKG [4H1064-AA]
interaction score (4H3446-AA): -1.11
interaction score (4H3628-AA): 1.07
interaction score (4H3066-AA): -1.4
interaction score (4H478-AA): -1.56
interaction score (4H2742-AA): -1.78
interaction score (4H3920-AA): 1.13
interaction score (4H971-AA): -1.08
interaction score (4H3029-AA): -1.16

Binder: DENAALKAKIAALEAKNAALEAKIAALEG [4H1845-AA]
interaction score (4H716-AA): -1.81
interaction score (4H2143-AA): -1.68
interaction score (4H2458-AA): -1.6
interaction score (APC1434-AA): -1.56
interaction score (4H2290-AA): -1.92
interaction score (APC9096-AA): -2.08
interaction score (APC2405-AA): -1.12

Binder: DENAALEAKIAALKAKNAALKAEIAALEG [4H1401-AA]
interaction score (P6-AA-1HAA-L): 2.1
interaction score (P6-AA-1HGe-H): 1.77
interaction score (P6-AA-1HAA-R): 1.83
interaction score (P6-AA-1HAA-K): 2.04
interaction score (P6-AA-12HGe-W): -1.79
interaction score (P6-AA-12HGe-K): -0.592

Second part, the binder after the results:

interaction score (P6-AA-12HAA-S): 1.43
interaction score (P6-AA-12HAA-L): 2.03
Binder: DENAALEAKIAALKAKIAALKAEIAALEG [4H1385-AA]

interaction score (4H775-AA): 1.63
interaction score (4H2614-AA): -0.142
interaction score (4H1710-AA): 0.556
interaction score (4H2512-AA): -0.538
Binder: DENAALEAKIAALKAEIAALEAKIAALKG [4H1350-AA]

interaction score (4H432-AA): -1.72
interaction score (4H3619-AA): -1.97
interaction score (4H3094-AA): -0.0288
interaction score (4H3449-AA): -1.43
Binder: DEIAALEAENAALKAKNAALKAEIAALEG [4H249-AA]
